Reference: paper PMC4358367, “Structural basis of diverse membrane target recognitions by ankyrins” (eLife, 2014)
Where no end group is shown, it is not given here.

Assays:
[1] = target: T1, AnkB_repeats (24 ANK repeats of human 220 kDa ankyrin-B, residues 28–873) (human, UniProt Q01484 28-873); test: FP
T1 chain: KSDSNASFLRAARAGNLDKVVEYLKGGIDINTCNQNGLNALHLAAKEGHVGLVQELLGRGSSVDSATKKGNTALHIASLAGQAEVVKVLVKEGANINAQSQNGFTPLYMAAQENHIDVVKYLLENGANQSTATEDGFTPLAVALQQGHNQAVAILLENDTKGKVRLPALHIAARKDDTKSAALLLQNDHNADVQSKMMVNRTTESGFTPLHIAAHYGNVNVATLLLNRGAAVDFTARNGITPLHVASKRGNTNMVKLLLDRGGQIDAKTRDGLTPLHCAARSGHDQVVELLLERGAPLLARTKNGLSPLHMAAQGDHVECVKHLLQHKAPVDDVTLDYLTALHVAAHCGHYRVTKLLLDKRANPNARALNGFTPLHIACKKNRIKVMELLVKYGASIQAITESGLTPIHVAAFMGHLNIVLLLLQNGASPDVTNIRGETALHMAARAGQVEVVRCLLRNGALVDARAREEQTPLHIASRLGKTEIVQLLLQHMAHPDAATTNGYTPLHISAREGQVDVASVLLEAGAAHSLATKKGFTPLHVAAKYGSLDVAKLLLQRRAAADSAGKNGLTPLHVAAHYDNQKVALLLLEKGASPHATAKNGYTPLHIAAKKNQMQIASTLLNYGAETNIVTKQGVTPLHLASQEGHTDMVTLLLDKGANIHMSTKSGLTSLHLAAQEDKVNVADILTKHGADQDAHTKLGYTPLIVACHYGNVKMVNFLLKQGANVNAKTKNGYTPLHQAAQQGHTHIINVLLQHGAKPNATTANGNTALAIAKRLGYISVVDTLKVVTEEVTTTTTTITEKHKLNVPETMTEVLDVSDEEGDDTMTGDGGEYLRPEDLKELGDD

[2] = target: T2, AnkB_repeats (24 ANK repeats of human 220 kDa ankyrin-B, residues 28–873) (human, UniProt Q01484 28-873); test: fluorescence polarisation; FITC-labeled peptide (~1 µM) titrated with AnkB_repeats WT or mutants; 25°C; 50 mM Tris pH 8.0, 100 mM NaCl, 1 mM DTT, 1 mM EDTA; one-site binding model; conditions: both partners purified
T2 construct: ankyrin-B (AnkB), human, 220 kDa isoform used as template, ANK repeats, residues 28-873; source: E. coli BL21 (DE3), purified
T2 sequence (looked up): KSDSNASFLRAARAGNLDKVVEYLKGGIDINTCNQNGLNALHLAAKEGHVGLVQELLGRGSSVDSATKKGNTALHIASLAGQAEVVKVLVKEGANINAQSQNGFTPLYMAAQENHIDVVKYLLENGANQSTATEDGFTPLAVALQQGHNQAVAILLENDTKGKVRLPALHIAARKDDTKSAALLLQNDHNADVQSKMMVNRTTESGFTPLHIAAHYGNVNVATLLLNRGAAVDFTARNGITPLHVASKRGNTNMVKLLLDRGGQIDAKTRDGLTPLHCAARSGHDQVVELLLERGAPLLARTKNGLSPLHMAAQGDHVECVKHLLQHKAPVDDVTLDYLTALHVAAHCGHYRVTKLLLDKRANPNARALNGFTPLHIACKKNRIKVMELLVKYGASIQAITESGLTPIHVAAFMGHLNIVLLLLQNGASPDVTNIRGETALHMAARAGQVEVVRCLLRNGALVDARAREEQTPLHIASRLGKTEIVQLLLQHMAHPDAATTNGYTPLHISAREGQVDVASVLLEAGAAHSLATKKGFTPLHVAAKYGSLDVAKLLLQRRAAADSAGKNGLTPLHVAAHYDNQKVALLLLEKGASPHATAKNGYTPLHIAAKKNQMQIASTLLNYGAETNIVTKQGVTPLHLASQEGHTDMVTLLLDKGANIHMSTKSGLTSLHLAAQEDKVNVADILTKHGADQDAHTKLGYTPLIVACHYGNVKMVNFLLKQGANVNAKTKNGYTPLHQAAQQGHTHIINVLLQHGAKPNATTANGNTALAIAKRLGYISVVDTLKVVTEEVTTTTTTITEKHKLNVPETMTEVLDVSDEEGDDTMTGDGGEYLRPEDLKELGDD

- Kd [1]: 3.3 µM
- binding result [2]: binds
B1: Cav1.3 peptide (mouse Cav1.3 residues 2134–2166), FITC-labeled (peptide, UniProt Q99246-4 2134-2166, looked up)
peptide: ELQDFGPGYSDEEPDPGREEEDLADEMICITTL
modifications: also: FITC label (position not given here)
notes: voltage-gated calcium channel Cav1.3, mouse, residues 2134-2166; also called voltage-gated calcium channel Cav1.3 peptide; source: synthetic peptide (commercially synthesized)
